Data taken from article doi:10.1101/2020.12.01.405779.

Columns and labels:
FUL3 (wheat) = assay: two-hybrid
FUL2 (wheat) = assay: two-hybrid

VRT2 (Bridge protein of the yeast three-hybrid assay) (natural protein)
percent reduction of the α-gal activity of the FUL3 - SEP1-2 interaction (FUL3 (wheat)): 93.8%
percent reduction of the α-gal activity of the FUL2 - SEP1-2 interaction (FUL2 (wheat)): 12%
percent reduction of the α-gal activity of the FUL2 - SEP1-4 interaction (FUL2 (wheat)): 20.6%
percent reduction of the α-gal activity of the FUL2 - SEP1-6 interaction (FUL2 (wheat)): 22%
